{"source": "patent US20240090511A1", "molecular_target": "N. viridula BBMV proteins", "experiment": "competition pull-down: biotinylated peptide against ABP5-(AP)5-mCherry on BBMV", "data": [{"binder": "MDWPRRN (biotinylated (position not given))", "note": "[biotinylated synthetic peptide (ABP5)]", "values": [{"measurement": "competitor peptide concentration at which binding was outcompeted", "result": "> 10", "unit": "µM"}]}]}
